In one assay the target is T1, hOGG1 F319A (human, UniProt O15527 1-345, F319A).
T1 construct: human 8-oxoguanine glycosylase 1 (hOGG1) with F319A, from the pGEX-hOGG1 vector; Mutant defective for 8-oxoG recognition; also called hOGG1 mutant (F319A)
Nature of the assay: pull-down; biotinylated dsDNA with an 8oxoG lesion on Dynabeads M-280 Streptavidin; 2 μg each of hSSB1 and hOGG1 F319A pre-incubated in buffer K with 75 mM KCl at 4°C, then 2 h with beads at 4°C, wash with 100 mM KCl; SDS-PAGE, Coomassie blue. The note with it: both partners purified.

In another assay the target is GST-hOGG1 wild type (human, UniProt O15527 1-345). Description: cell-based or functional assay.
Sequence of GST-hOGG1 wild type (O15527 whole entry): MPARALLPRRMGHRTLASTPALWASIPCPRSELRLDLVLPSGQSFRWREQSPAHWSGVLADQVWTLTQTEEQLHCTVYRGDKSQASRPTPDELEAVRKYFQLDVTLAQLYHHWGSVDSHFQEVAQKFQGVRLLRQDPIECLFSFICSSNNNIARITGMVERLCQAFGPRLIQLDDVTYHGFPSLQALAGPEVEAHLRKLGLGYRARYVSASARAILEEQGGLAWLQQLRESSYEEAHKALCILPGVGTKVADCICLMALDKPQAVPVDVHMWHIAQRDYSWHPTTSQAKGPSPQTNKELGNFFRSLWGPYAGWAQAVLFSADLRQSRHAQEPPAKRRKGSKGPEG

T1 sequence (O15527 whole entry F319A): as the sequence (O15527 whole entry) above, with F319A counted along it

B1: recombinant hSSB1 full length, N-terminal (His)6-tag (natural protein, human, UniProt Q9BQ15 1-211, looked up)
chain: MTTETFVKDIKPGLKNLNLIFIVLETGRVTKTKDGHEVRTCKVADKTGSINISVWDDVGNLIQPGDIIRLTKGYASVFKGCLTLYTGRGGDLQKIGEFCMVYSEVPNFSEPNPEYSTQQAPNKAVQNDSNPSASQPTTGPSAASPASENQNGNGLSAPPGPGGGPHPPHTPSHPPSTRITRSQPNHTPAGPPGPSSNPVSNGKETRRSSKR
notes: also called hSSB1 Full length (FL); purified recombinant hSSB1; source: E. coli T7 shuffle strain, purified (Superdex 200)
As for B1, in the assay with hOGG1 F319A, the binding result is listed as “binds”. For the same molecule, the “8-oxoG incision activity of 20 nM recombinant hOGG1 on a 22 bp dsDNA with 8-oxoG opposite cytosine, with increasing concentrations of hSSB1 (37°C, 30 min)” value with GST-hOGG1 wild type was 12 fold.

These data come from PMC4605301, “hSSB1 (NABP2/ OBFC2B) is required for the repair of 8-oxo-guanine by the hOGG1-mediated base excision repair pathway” (Nucleic Acids Research, 2015).
